Laboratory results taken from patent US20160002357A1.
Values joined by “and” are separate entries in the source; they are usually repeats but may differ in a detail not shown here. Equal values may be shown once.

Assays:
[1] = molecular target: human soluble CD3 (human) (UniProt P07766); assay: SPR Biacore pH 7.4
[2] = molecular target: human soluble CD3 (human) (UniProt P07766); assay: SPR Biacore pH 7.4, average
[3] = molecular target: human soluble CD3 (human) (UniProt P07766); assay: SPR Biacore affinity
[4] = molecular target: human soluble CD3 (human) (UniProt P07766); assay: SPR Biacore
[5] = molecular target: human soluble CD3 (human) (UniProt P07766); assay: SPR
[6] = molecular target: human soluble CD3 (human) (UniProt P07766); assay: SPR Biacore 3000, antigen immobilised

Sequence of human soluble CD3 (human) (P07766 23-126, chain 1 of 2): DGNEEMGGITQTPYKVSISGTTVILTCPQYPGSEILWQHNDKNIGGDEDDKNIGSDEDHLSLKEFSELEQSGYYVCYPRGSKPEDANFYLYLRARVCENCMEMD
Sequence of human soluble CD3 (human) (P04234 22-105, chain 2 of 2, further chain): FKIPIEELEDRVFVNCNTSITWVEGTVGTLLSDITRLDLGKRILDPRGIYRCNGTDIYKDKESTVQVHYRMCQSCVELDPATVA

B1: 153 VF-DART (bispecific antibody, not shown: small tags and cut ends)
chain 1: QSVLTQPPSVSAAPGQKVTISCSGSSSNIGNNYVSWYQQLPGTAPKLLIYDNNKRPSGIPDRFSGSKSGTSATLGITGLQTGDEADYYCGTWDSSLSGVVFGGGTKLTVLGGGSGGGGEVQLVESGGGLVQPGGSLRLSCAASGFTFSTYAMNWVRQAPGKGLEWVGRIRSKYNNYATYYADSVKGRFTISRDDSKNSLYLQMNSLKTEDTAVYYCVRHGNFGNSYVSWFAYWGQGTLVTVSS
chain 2: QAVVTQEPSLTVSPGGTVTLTCRSSTGAVTTSNYANWVQQKPGQAPRGLIGGTNKRAPWTPARFSGSLLGGKAALTITGAQAEDEADYYCALWYSNLWVFGGGTKLTVLGGGGSGGGGEVQLVQSGAEVKKPGASVKVSCKASGYTFTSYGISWVRQAPGQGLEWMGWISAYNGNTNYAQKLQGRVTMTTDTSTSTAYMELRSLRSDDTAVYYCATIDTANAFGIWGQGTMVTVSS
modifications: One interchain disulfide between the Linker 2 cysteines; these linkers are left out of the letters.
[1]
  Kd: 4.65 nM and 4.77 nM
  koff: 0.00525 s⁻¹ and 0.00555 s⁻¹
  kon: 1.13e+06 M⁻¹ s⁻¹ and 1.16e+06 M⁻¹ s⁻¹
  t½: 2.07 min and 1.96 min
[2]
  Kd: 4.71 nM
[3]
  Kd: 4.71 nM

B2: 154 VF-DART (bispecific antibody, not shown: small tags and cut ends)
chain 1: QSVLTQPPSVSAAPGQKVTISCSGSSSNIGNNYVSWYQQLPGTAPKLLIYDNNKRPSGIPDRFSGSKSGTSATLGITGLQTGDEADYYCGTWDSSLSSYVFGTGTKVTVLGGGSGGGGEVQLVESGGGLVQPGGSLRLSCAASGFTFSTYAMNWVRQAPGKGLEWVGRIRSKYNNYATYYADSVKGRFTISRDDSKNSLYLQMNSLKTEDTAVYYCVRHGNFGNSYVSWFAYWGQGTLVTVSS
chain 2: QAVVTQEPSLTVSPGGTVTLTCRSSTGAVTTSNYANWVQQKPGQAPRGLIGGTNKRAPWTPARFSGSLLGGKAALTITGAQAEDEADYYCALWYSNLWVFGGGTKLTVLGGGGSGGGGEVQLVQSGAEVKKPGASVKVSCKASGYTFTSYGISWVRQAPGQGLEWMGWISAYNGNTNYAQKLQGRVTMTTDTSTSTAYMELRSLRSDDTAVYYCATIDTATAFDIWGQGTMVTVSS
[3]
  Kd: 3.69 nM

B3: 35 EK-DART (bispecific antibody)
chain 1: QSVLTQPPSVSAAPGQKVTISCSGSSSNIGNNYVSWYQQLPGTAPKLLIYDNNKRPSGIPDRFSGSKSGTSATLGITGLQTGDEADYYCGTWDSSLSAVVFGGGTKLTVLGGGSGGGGEVQLVESGGGLVQPGGSLRLSCAASGFTFNTYAMNWVRQAPGKGLEWVARIRSKYNNYATYYADSVKDRFTISRDDSKNSLYLQMNSLKTEDTAVYYCVRHGNFGNSYVSWFAYWGQGTLVTVSSGGCGGGKVAALKEKVAALKEKVAALKEKVAALKE
chain 2: QAVVTQEPSLTVSPGGTVTLTCRSSTGAVTTSNYANWVQQKPGQAPRGLIGGTNKRAPWTPARFSGSLLGGKAALTITGAQAEDEADYYCALWYSNLWVFGGGTKLTVLGGGGSGGGGEVQLVQSGAEVKKPGASVKVSCKASGYTFTSYGISWVRQAPGQGLEWMGWISAYNGNTNYAQKLQGRVTMTTDTSTSTAYMELRSLRSDDTAVYYCATIDTASAFDIWGQGTMVTVSSGGCGGGEVAALEKEVAALEKEVAALEKEVAALEK
[4]
  Kd: 23.6 nM
  koff: 0.00447 s⁻¹
  kon: 189000 M⁻¹ s⁻¹
[5]
  Kd: 17.1 nM
[6]
  Kd: 23.6 nM
  koff: 0.00447 s⁻¹
  kon: 189000 M⁻¹ s⁻¹
